In patent EP4707304A1 (Axcynsis Therapeutics Pte. Ltd., dated 2024):

Tests used:
VLP-hCLDN6 [1] = target: T1, VLP-hCLDN6 (human, UniProt P56747 1-220); test: ELISA, VLP-CLDN6 coated 400 ng/well, 4-fold serial dilution, HRP goat anti-human IgG Fc
T1 construct: also called VLP-CLDN6; AT-003-ag1
T1 sequence: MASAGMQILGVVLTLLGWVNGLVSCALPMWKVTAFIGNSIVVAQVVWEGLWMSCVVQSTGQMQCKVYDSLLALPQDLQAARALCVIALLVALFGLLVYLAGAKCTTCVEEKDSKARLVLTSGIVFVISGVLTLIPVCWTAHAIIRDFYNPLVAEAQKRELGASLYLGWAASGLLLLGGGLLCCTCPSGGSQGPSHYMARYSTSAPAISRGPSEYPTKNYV

VLP-hCLDN6 [2] = target: T1, VLP-hCLDN6; test: ELISA on coated VLP-hCLDN6

B1: murine/human chimeric antibody cAb-1 (antibody, V domains shown)
VH: EVKLVESGGGLVKPGGSLKLSCAASGFTFNSYTMSWVRQTPAKRLEWVVTISSGGGRTYYPDSVKGRFTISRDNARNTLYLQMSSLRSEDTAMYYCIRGDYRYDGFAYWGQGTLVTVST
VL: DIQMTQSPASLSASVGETVTITCRASENIDSYLAWYQQKQGKSPQLLVYASTLLVDGVPSRFSGSRSGTQFSLKINSLQSEDVARYYCQHYYSIPYTFGSGTKLEIK
notes: also called VH0/VL0
B1 was tested, and the EC50 (VLP-hCLDN6 [1]) was 0.59 nM and the EC50 (VLP-hCLDN6 [2]) was 0.59 nM.
